The record followed here is patent US20240254220A1 (CENTRICSBIO, published 2024).

What is called EC50 is the concentration needed to bring the measured effect to its halfway point. The low end stands for a more potent agent, the high end for a less potent agent.

T1: CD300c antigen (11832-H08H, Sino Biological) (human, UniProt Q08708 21-183)
T1 construct: Bought antigen; also called CD300c protein; CD300 antigen-like family member C
T1 sequence (looked up): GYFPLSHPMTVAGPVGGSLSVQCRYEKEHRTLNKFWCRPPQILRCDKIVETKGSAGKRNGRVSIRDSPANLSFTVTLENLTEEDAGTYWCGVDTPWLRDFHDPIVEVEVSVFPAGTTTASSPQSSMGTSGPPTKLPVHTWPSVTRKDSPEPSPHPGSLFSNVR

B1: SK13 (antibody, V domains shown)
VH: RVQLLESGGGLVQPGGSLRLSCAASGFTFSDYAMSWVRQAPGKGLEWVSSISSSSSYIYYTDSVKGRFTISRDNSKNTLYLQMNSLRAEDTAVYYCARGGYGFDYWGQGTLVTVSS
VL: EIVLTQSPGTLSLSPGERATLSCRASQSISSYLNWYQQKPGQAPRLLIYSASSRPQGIPDRFSGSGSGTDFTLTISRLEPEDFAVYYCQQYDDLPFTFGQGTKVEIK
notes: also called anti-CD300c monoclonal antibody SK13; CB301 antibody SK13
B2: CK1 (antibody, V domains shown)
VH: EVQLLESGGGLVQPGGSLRLSCAASGFTFSRYAMTWVRQAPGKGLEWVSSMSGTGGTTYYADSVKGRFTISRDNSKNTLYLQMNSLRAEDTAVYYCARGAYGFDHWGQGTLVTVSS
VL: EIVLTQSPGTLSLSPGERATLSCRASQSIGNYLNWYQQKPGQAPRLLIYDASNLETGIPDRFSGSGSGTDFTLTISRLEPEDFAVYYCQQSSAIPYTFGQGTKVEIK
notes: also called anti-CD300c monoclonal antibody CK1; CB301 antibody CK1
B3: SK16 (antibody, V domains shown)
VH: RVQLLESGGGLVQPGGSLRLSCAASGFTFSSYAMSWVRQAPGKGLEWVSAINGSGGSTLYADSVKGRFTISRDNSKNTLYLQMNSLRAEDTAVYYCARGVSGFDSWGQGTLVTVSS
VL: B2 VL with A25I, G30S, N31S, N53L, L54R, E55A, S92Y, A93K, I94T, Y96I
notes: also called anti-CD300c monoclonal antibody SK16; CB301 antibody SK16
B4: SK15 (antibody, V domains shown)
VH: B3 VH with S35H, L59Y, M83T, V100L, S101Q, S105Y
VL: B2 VL with R24Q, S28D, G30T, N53S, S92Y, A93S, I94T, Y96I
notes: also called anti-CD300c monoclonal antibody SK15; CB301 antibody SK15
B5: CL9 (antibody, V domains shown)
VH: EVQLLESGGGLVQPGGSLRLSCAASGFTFSSYYWSWVRQAPGKGLEWVSAISGSGGSTYYADSVKGRFTISRDNSKNTLYLQMNSLRAEDTAVYYCARIDVYGFDIWGQGTLVTVSS
VL: QSVLTQPPSASGTPGQRVTISCSGSTSNIGTNYVYWYQQLPGTAPKLLIYDNNNRPSGVPDRFSGSKSGTSASLAISGLRSEDEADYYCQTWDSSTDVVFGGGTKLTVL
notes: also called anti-CD300c monoclonal antibody CL9; CB301 antibody CL9
B6: SK14 (antibody, V domains shown)
VH: B3 VH with R1E, S31N, Y32F, M34I, S35A, N52S, S54R, G56T, L59Y
VL: EIVLTQSPGTLSLSPGERATLSCRASQSISSHLAWYQQKPGQAPRLLIYDTSNRATGIPDRFSGSGSGTDFTLTISRLEPEDFAVYYCQQSYSTPFTFGQGTKVEIK
notes: also called anti-CD300c monoclonal antibody SK14; CB301 antibody SK14
B7: SK12 (antibody, V domains shown)
VH: B3 VH with S35H, N52S, S57D, L59Y, Y60H, A97T, V100L, S105Y
VL: EIVLTQSPGTLSLSPGERATLSCRASQSISSYLNWYQQKPGQAPRLLIYDASNRAPGIPDRFSGSGSGTDFTLTISRLEPEDFAVYYCQQSYSIPITFGQGTKVEIKF
notes: also called anti-CD300c monoclonal antibody SK12; CB301 antibody SK12
B8: CL5 (antibody, V domains shown)
VH: RVQLLESGGGLVQPGGSLRLSCAASGFTFSSYAMHWVRQAPGKGLEWVSSISGGGYGTYYADSVKGRFTISRDNSKNTLYLQMNSLRAEDTAVYYCARSTVWAFDIWGQGTLVTVSS
VL: QSVLTQPPSASGTPGQRVTISCSGNNIGSKSVHWYQQLPGTAPKLLIYDVSKRPSERPDRFSGSKSGTSASLAISDLRSEDEADYYCQSFDSSGTWIFGGGTKLTVL
notes: also called anti-CD300c monoclonal antibody CL5; CB301 antibody CL5
B9: CK2 (antibody, V domains shown)
VH: EVQLLESGGGLVQPGGSLRLSCAASGFTFSSYGMHWVRQAPGKGLEWVSAISGSGTSIYYADSVKGRFTISRDNSKNTLYLQMNSLRAEDTAVYYCARGGTAFDYWGQGTLVTVSS
VL: B6 VL with S28R, I29S, S30D, S31N, H32Y, T51A, I106T
notes: also called anti-CD300c monoclonal antibody CK2; CB301 antibody CK2
B10: SK11 (antibody, V domains shown)
VH: B9 VH with E1R, S31T, T56G, I58T, G100L, T101S, A102G, F103L
VL: B6 VL with A25S, S28G, S30T, S31N, H32Y, T51A, F96L
notes: also called anti-CD300c monoclonal antibody SK11; CB301 antibody SK11
B11: CK3 (antibody, V domains shown)
VH: RVQLLESGGGLVQPGGSLRLSCAASGFTFSSYAISWVRQAPGKGLEWVSATSGSGRATYYADSVKGRFTISRDNSKNTLYLQMNSLRAEDTAVYYCARDTWWEGYFDLWGQGTLVTVSS
VL: EIVLTQSPGTLSLSPGERATLSCQASHISTHLNWYQQKPGQAPRLLIYGASSRATGIPDRFSGSGSGTDFTLTISRLEPEDFAVYYCQQYNTYPPTFGQGTKVEIK
notes: also called anti-CD300c monoclonal antibody CK3; CB301 antibody CK3
B12: SK17 (antibody, V domains shown)
VH: EVQLLESGGGLVQPGGSLRLSCAASGFTFSSYYWSWVRQAPGKGLEWVSTITGSGGSTDYANSVKGRFTISRDNSKNTLYLQMNSLRAEDTAVYYCATGGGIFDYWGQGTLVTVSS
VL: EIVLTQSPGTLSLSPGERATLSCQASQTISNYLNWYQQKPGQAPRLLIYDASNRATGIPDRFSGSGSGTDFTLTISRLEPEDFAVYYCQQYNSYPPSFGQGTKVEIK
notes: also called anti-CD300c monoclonal antibody SK17; CB301 antibody SK17
B13: CL4 (antibody, V domains shown)
VH: RVQLLESGGGLVQPGGSLRLSCAASGFTFGSNYMSWVRQAPGKGLEWVSTISGSGTSTYYADSLKGRFTISRDNSKNTLYLQMNSLRAEDTAVYYCARGMWGMDVWGQGTLVTVSS
VL: QSVLTQPPSASGTPGQRVTISCTGKHRHTVNWYQLLPGTAPKLLIYLDSERPSGVPDRFSGSKSGTSASLAISGLRSEDEADYYCQSYDSSSVVFGGGTKLTVL
notes: also called anti-CD300c monoclonal antibody CL4; CB301 antibody CL4
B14: CL6 (antibody, V domains shown)
VH: EVQLLESGGGLVQPGGSLRLSCAASGFTFSSYGMHWVRQAPGKGLEWVSAISGSGGSTYYADSVKGRFTISRDNSKNTLYLQMNSLRAEDTAVYYCAVSGAGRGFFDYWGQGTLVTVSS
VL: QSVLTQPPSASGTPGQRVTISCSGSSSNIGSNYVYWYQQLPGTAPKLLIYEDNKRPSGVPDRFSGSKSGTSASLAISGLRSEDEADYYCSSYTSSSTVIFGGGTKLTVL
notes: also called anti-CD300c monoclonal antibody CL6; CB301 antibody CL6
B15: CB301_H3L1_E6 (antibody, V domains shown)
VH: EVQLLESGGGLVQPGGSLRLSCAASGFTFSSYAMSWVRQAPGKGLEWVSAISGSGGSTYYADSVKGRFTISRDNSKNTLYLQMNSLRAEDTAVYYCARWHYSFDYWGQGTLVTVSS
VL: QSVLTQPPSASGTPGQRVTISCRGNNIGSKRVHWYQQLPGTAPKLLIYSYNHRPSGVPDRFSGSKSGTSASLAITGLRSEDEADYYCNTWDDSLEGPVFGGGTKLTVL
B16: CB301_H3L1_A10 (antibody, V domains shown)
VH: B9 VH with P14S, T56G, I58T, A97V, G100Y, T101G, F103M, Y105V
VL: QSVLTQPPSASGTPGQRVTISCTRSSGSIASNYVQWYQQLPGTAPKLLIYRNNQRPSGVPDRFSGSKSGTSASLAISGLRSEDEADYYCSSYTTSSTLVFGGGTKLTVL
B17: CB301_H3L1_A12 (antibody, V domains shown)
VH: B9 VH with G33A, T56G, I58T, E89K, R98S, G100Y, T101G, A102L, F103M, Y105V
VL: QSVLTQPPSASGTPGQRVTISCTGTSSDVGNYNLVSWYQQLPGTAPKLLIYSNNQRPSGVPDRFSGSKSGTSASLAISGLRSEDEADYYCSSYTGSNALLFGGGTKLTVL

Changes are numbered by the printed parent chain.

The first assay deals with T1, CD300c antigen (11832-H08H, Sino …). In words: binding ELISA, plate coated with CD300c antigen (8 µg/mL), HRP anti-Fc IgG detection. Here is the method: In order to identify the antigen-binding ability of the anti-CD300c monoclonal antibodies produced in Example 1, binding ELISA was performed. Specifically, a CD300c antigen (11832-H08H, Sino Biological) or a CD300a antigen (12449-H08H, Sino Biological) in a coating buffer (0.1 M sodium carbonate, pH 9.0) was dispensed into an ELISA plate at a concentration of 8 μg/mL per well, followed by incubation at room temperature for 3 hours to allow the antigen to be bound to the plate. The unbound antigens were removed by washing three times using phosphate buffered saline-Tween 20 (PBST), and then 300 μL of PBST supplemented with 5% bovine serum albumin (BSA) was added to each well, followed by incubation at room temperature for 1 hour and then washing using PBST. Then, an anti-CD300c monoclonal antibody was diluted in quadruplicate and added thereto, followed by incubation for 1 hour at room temperature for antigen binding. After 1 hour, washing was performed three times using PBST to remove unbound anti-CD300c monoclonal antibody, and then 4 μg/mL of an antibody for detection (HRP conjugated anti-Fc IgG) was added, followed by incubation again at room temperature for 1 hour. Subsequently, the unbound antibody for detection was removed using PBST, and then TMB solution was added, followed by incubation for 10 minutes for development. Then, 2 N sulfuric acid solution was added to terminate the development reaction, and the absorbance was measured at 450 nm to identify the antibodies specifically binding to the CD300c antigen.
For orientation: An ELISA detects its analyte on a solid surface through an enzyme-linked reagent.
Turning to B1, the midpoint of the response, the EC50, lay at 0.044 µg/mL. As for B2, the midpoint of the response, the EC50, lay at 0.056 µg/mL. The same measure, in the same setting: under B3 stands 2.42 µg/mL. Same read-out and setting: under B4 stands 14.7 µg/mL. Same read-out and setting: under B5 stands 0.094 µg/mL; under B6, 0.065 µg/mL; under B7, 0.067 µg/mL. Take B8: the concentration for a half-maximal effect (EC50) was found to be 0.032 µg/mL.

B9 came in with an EC50 of 0.033 µg/mL. On to B10, for which the 50% effective concentration (EC50) is 0.052 µg/mL. The same measure, in the same setting: under B11 stands 0.793 µg/mL; under B12, 0.054 µg/mL; under B13, 0.031 µg/mL.

In turn, B14 came in with a concentration giving a half-maximal response (EC50) of 0.148 µg/mL.

For another assay the target is unchanged. In words: selection ELISA of Example 1.2, scFv periplasmic extract on coated CD300c antigen. Here is the method:
In order to select anti-CD300c monoclonal antibodies specifically binding, with high binding affinity, to a CD300c antigen, ELISA was performed using the library pool obtained by the same method as in Example 1.1. More specifically, each of a CD300c antigen and a CD300a antigen in a coating buffer (0.1 M sodium carbonate, pH 9.0) was dispensed into an ELISA plate at a concentration of 5 μg/mL per well, followed by incubation at room temperature for 3 hours, to allow the antigen to bind to the plate. The unbound antigens were removed by washing three times using phosphate buffered saline-Tween 20 (PBST), and then 350 μL of PBST supplemented with 2% bovine serum albumin (BSA) was added to each well, followed by incubation at room temperature for 1 hour and then washing again using PBST. Then, 25 μg of a periplasmic extract containing scFv obtained by the same method as in Example 1.1 was added thereto, followed by incubation for 1 hour at room temperature for antigen binding. After 1 hour, the unbound scFv was removed by washing three times using PBST, and then 4 μg/mL of an antibody for detection was added, followed by incubation again at room temperature for 1 hour. Subsequently, the unbound antibodies for detection were removed using PBST, and then HRP-conjugated anti-rabbit IgG was added, followed by incubation at room temperature for 1 hour. The unbound antibodies were removed again using PBST. Subsequently, 3,3′,5,5′-tetramethylbenzidine (TMB) solution was added, followed by incubation for 10 minutes for development. Then, 2 N sulfuric acid solution was added to terminate the development reaction, and the absorbance was measured at 450 nm to identify the antibodies specifically binding to the CD300c antigen.
Consider B15, for which the binding result is “binds”.

On to B16, for which the binding result is “binds”. The same measure, in the same setting: under B17 stands “binds”.
